Source: patent publication US20250011424A1 (SALVARX, published 2025)

How the values were obtained:
[1] = molecular target: T1, V-C1-C2 construct of human RAGE (human, UniProt Q15109 23-404); test: binding to cells expressing RAGE domain constructs fused to eGFP
T1 construct: also called ABC construct; not shown: eGFP of the vector pEGFP-N2, fused in frame at the C-terminus
From the text: The extracellular portion of the RAGE protein contains three domains with similarities to the IgG family. The three domains are V, C1, and C2 (variable, constant 1, and constant 2, respectively). RS07 binds the V domain while RS15 binds an integrated V-C1 domain (FIG. 2B). RAGE constructs used in the present exemplary embodiment include a V-C1-C2 construct starting at amino acid 23 of SEQ ID NO:1 (AQNITA . . . ), immediately following the native signal sequence. The C1-C2 construct starts at amino acid 117 of SEQ ID NO:1 (VYQIPG . . . ), and the C2 construct starts at amino acid 249 of SEQ ID NO:1 (VAPGG . . . ). Domains were predicted on Genbank and by crystal structure. To map antibody binding to individual RAGE domains, the IL2 signal sequence was cloned into pEGFP-N2, into which portions of RAGE were cloned in-frame with IL2 signal sequence (IL2ss) at the 5′ end and in-frame with eGFP at the 3′ end. In addition to the extracellular portions of RAGE, all constructs contain the RAGE transmembrane and C-terminal regions, so the GFP signal should be intracellular, while the IL2ss ensures the RAGE V, C1, and/or C2 motifs are extracellular, and accessible to antibodies. The ABC construct in FIG. 2B includes the V, C1, and C2 domains, and initiates at aa 23 of SEQ ID NO: 1. The BC construct in FIG. 2B includes the C1 and C2 domains, and initiates at aa 116 of SEQ ID NO: 1. […]

Human RAGE = molecular target: T2, Human RAGE (human, UniProt Q15109 23-404); test: flow cytometry on human colorectal cancer samples
T2 construct: also called receptor for advanced glycation end products; AGER
T2 sequence (Q15109 23-404): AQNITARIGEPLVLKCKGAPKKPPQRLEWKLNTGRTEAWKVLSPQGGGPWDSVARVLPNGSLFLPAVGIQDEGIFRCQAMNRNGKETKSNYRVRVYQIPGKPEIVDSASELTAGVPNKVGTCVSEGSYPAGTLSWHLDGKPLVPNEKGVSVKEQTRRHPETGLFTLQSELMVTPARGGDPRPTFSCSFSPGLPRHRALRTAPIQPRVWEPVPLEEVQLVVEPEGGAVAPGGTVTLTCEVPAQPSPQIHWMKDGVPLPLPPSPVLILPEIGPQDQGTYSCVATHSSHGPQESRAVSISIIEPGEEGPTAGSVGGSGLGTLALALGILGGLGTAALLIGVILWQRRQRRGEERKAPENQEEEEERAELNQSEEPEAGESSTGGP

T1 sequence (Q15109 23-404): as above

B1: RS15 (antibody, V domains shown)
VH: QVQLQQSGAELVRPGTSLKVSCKASGYAFTNYLIEWVNQRPGQGLEWIGVINPGSGGTHYNEKFKGKATLTADKSSSTAYMQLSSLTSDDSAIYFCARSRAVRAMDYWGQGTSVTV
VL: DIVMTQSQKFMSTSVGDRVSVTCKASQNVGTNVAWYQQKPGQSPKSLIYSASYRYSGVPDRFTGSGSGTDFTLTISNVQSEDLAEYFCQQYNSYFFTFGAGTKLELKR
notes: Mouse monoclonal IgG from a hybridoma (BALB/c immunised with human RAGE extracellular domain); also called RFT01; anti-RAGE (RS15)
**Q.** Which results are given for B1?
**A.** binding result [1]: binds; binding result (Human RAGE): binds
